{"source": "patent US20110158985A1", "target": "F protein of RSV (Long strain) (RSV (Long strain)) (UniProt P12568)", "sequence (P12568 26-574)": "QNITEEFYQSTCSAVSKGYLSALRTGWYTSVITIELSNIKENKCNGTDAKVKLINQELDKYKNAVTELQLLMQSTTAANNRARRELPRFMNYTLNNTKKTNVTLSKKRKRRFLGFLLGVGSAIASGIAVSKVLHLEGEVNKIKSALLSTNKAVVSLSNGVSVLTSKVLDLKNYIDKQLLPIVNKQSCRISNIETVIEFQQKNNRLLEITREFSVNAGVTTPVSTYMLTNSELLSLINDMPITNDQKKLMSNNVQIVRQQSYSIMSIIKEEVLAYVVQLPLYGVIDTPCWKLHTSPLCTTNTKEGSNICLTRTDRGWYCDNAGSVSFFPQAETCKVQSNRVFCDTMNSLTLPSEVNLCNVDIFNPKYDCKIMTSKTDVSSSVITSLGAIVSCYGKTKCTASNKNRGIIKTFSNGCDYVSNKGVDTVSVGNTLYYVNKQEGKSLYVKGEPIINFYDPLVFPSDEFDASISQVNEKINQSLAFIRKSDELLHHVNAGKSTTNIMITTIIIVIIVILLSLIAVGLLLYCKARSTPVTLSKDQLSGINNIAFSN", "assay": "cell-based or functional assay"}
{"substance": "palivizumab F(ab')2", "values": [{"measurement": "Microneutralization IC50", "result": 1.4, "unit": "nM"}]}
